# Measured values from patent US20250122306A1 (SUTRO BIOPHARMA, published 2025).
# Tests used:
# [1] = target: human tissue factor on cells (human, UniProt P13726 33-295); assay: cell-based or functional assay
# [2] = target: tissue factor reagent of the Tissue Factor Activity Assay Kit (Abcam #ab108906) (UniProt P13726 33-295, limits assumed); assay: cell-based or functional assay
# tissue factor reagent of the Tissue Factor Activity Assay Kit (Abcam #ab108906), sequence (P13726 33-295 limits assumed): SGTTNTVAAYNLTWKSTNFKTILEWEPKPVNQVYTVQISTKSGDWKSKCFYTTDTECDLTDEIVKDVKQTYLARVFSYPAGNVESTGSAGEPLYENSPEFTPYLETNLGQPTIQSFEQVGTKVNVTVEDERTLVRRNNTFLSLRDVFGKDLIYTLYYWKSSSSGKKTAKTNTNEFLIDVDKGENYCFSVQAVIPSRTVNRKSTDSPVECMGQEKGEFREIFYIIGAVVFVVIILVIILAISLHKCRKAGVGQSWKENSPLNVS
# human tissue factor on cells, sequence (P13726 33-295 limits assumed): as above
binder,measurement,setting,value
"Conjugate 1: 2900-A02 Y180/F404-LP1 (antibody, human IgG1, kappa, pAMF at Y180 and F404 (EU), each linked to LP1 (DBCO-Valcit-pAB-hemiasterlin)) heavy: MEVQLVESGGGLVQPGGSLRLSCAASGFTISGYIIHWVRQAPGKGLEWVGYIDPSNGYTYYADSVKGRFTISADTSKNTAYLQMNSLRAEDTAVYYCARDDQSLSSPFDYWGQGTLVTVSSASTKGPSVFPLAPSSKSTSGGTAALGCLVKDYFPEPVTVSWNSGALTSGVHTFPAVLQSSGLSLSSVVTVPSSSLGTQTYICNVNHKPSNTKVDKKVEPKSCDKTHTCPPCPAPELLGGPSVFLFPPKPKDTLMISRTPEVTCVVVDVSHEDPEVKFNWYVDGVEVHNAKTKPREEQYNSTYRVVSVLTVLHQDWLNGKEYKCKVSNKALPAPIEKTISKAKGQPREPQVYTLPPSREEMTKNQVSLTCLVKGFYPSDIAVEWESNGQPENNYKTTPPVLDSDGSFLYSKLTVDKSRWQQGNVFSCSVMHEALHNHYTQKSLSLSPGK light: not shown","cell killing EC50, HCC1954 (TF+++)",[1],0.064 nM
same,"cell killing EC50, HCC1954, with 0.5 uM unconjugated mAb 36",[1],> 100 nM
same,"cell killing EC50, NCI-H292 (TF++++)",[1],0.055 nM
same,"cell killing EC50, NCI-H1975 (TF++)",[1],~25 nM
same,"cell killing EC50, NCI-H1975, with 0.5 uM unconjugated mAb 36",[1],> 100 nM
same,"cell killing Span, HCC1954 (TF+++)",[1],95%
same,"cell killing Span, NCI-H292 (TF++++)",[1],85%
same,"cell killing Span, NCI-H1975 (TF++)",[1],62%
"Conjugate 5: 2900-A02 Y180/F404/k42/E161-LP1 (antibody, human IgG1, kappa, pAMF at K42 and E161, each linked to LP1; pAMF at Y180 and F404 (EU), each linked to LP1 (DBCO-Valcit-pAB-hemiasterlin)) heavy: MEVQLVESGGGLVQPGGSLRLSCAASGFTISGYIIHWVRQAPGKGLEWVGYIDPSNGYTYYADSVKGRFTISADTSKNTAYLQMNSLRAEDTAVYYCARDDQSLSSPFDYWGQGTLVTVSSASTKGPSVFPLAPSSKSTSGGTAALGCLVKDYFPEPVTVSWNSGALTSGVHTFPAVLQSSGLSLSSVVTVPSSSLGTQTYICNVNHKPSNTKVDKKVEPKSCDKTHTCPPCPAPELLGGPSVFLFPPKPKDTLMISRTPEVTCVVVDVSHEDPEVKFNWYVDGVEVHNAKTKPREEQYNSTYRVVSVLTVLHQDWLNGKEYKCKVSNKALPAPIEKTISKAKGQPREPQVYTLPPSREEMTKNQVSLTCLVKGFYPSDIAVEWESNGQPENNYKTTPPVLDSDGSFLYSKLTVDKSRWQQGNVFSCSVMHEALHNHYTQKSLSLSPGK light: MDIQMTQSPSSLSASVGDRVTITCRASQDVNTAVAWYQQKPGAPKLLIYSASFLYSGVPSRFSGSRSGTDFTLTISSLQPEDFATYYCQQHYTTPPTFGQGTKVEIKRTVAAPSVFIFPPSDEQLKSGTASVVCLLNNFYPREAKVQWKVDNALQSGNSQSVTEQDSKDSTYSLSSTLTLSKADYEKHKVYACEVTHQGLSSPVTKSFNRGEC","cell killing EC50, HCC1954 (TF+++)",[1],0.08 nM
same,"cell killing EC50, HCC1954, with 0.5 uM unconjugated mAb 38",[1],> 100 nM
same,"cell killing EC50, NCI-H292 (TF++++)",[1],0.045 nM
same,"cell killing EC50, NCI-H292, with 0.5 uM unconjugated mAb 38",[1],> 100 nM
same,"cell killing EC50, NCI-H1975 (TF++)",[1],~4.4 nM
same,"cell killing EC50, NCI-H1975, with 0.5 uM unconjugated mAb 38",[1],> 100 nM
same,"cell killing Span, HCC1954 (TF+++)",[1],91%
same,"cell killing Span, NCI-H292 (TF++++)",[1],87%
same,"cell killing Span, NCI-H1975 (TF++)",[1],72%
"Conjugate 3: 2900-A02 Y180/F404/k42-LP1 (antibody, human IgG1, kappa, pAMF at K42 linked to LP1; pAMF at Y180 and F404 (EU), each linked to LP1 (DBCO-Valcit-pAB-hemiasterlin)) heavy: MEVQLVESGGGLVQPGGSLRLSCAASGFTISGYIIHWVRQAPGKGLEWVGYIDPSNGYTYYADSVKGRFTISADTSKNTAYLQMNSLRAEDTAVYYCARDDQSLSSPFDYWGQGTLVTVSSASTKGPSVFPLAPSSKSTSGGTAALGCLVKDYFPEPVTVSWNSGALTSGVHTFPAVLQSSGLSLSSVVTVPSSSLGTQTYICNVNHKPSNTKVDKKVEPKSCDKTHTCPPCPAPELLGGPSVFLFPPKPKDTLMISRTPEVTCVVVDVSHEDPEVKFNWYVDGVEVHNAKTKPREEQYNSTYRVVSVLTVLHQDWLNGKEYKCKVSNKALPAPIEKTISKAKGQPREPQVYTLPPSREEMTKNQVSLTCLVKGFYPSDIAVEWESNGQPENNYKTTPPVLDSDGSFLYSKLTVDKSRWQQGNVFSCSVMHEALHNHYTQKSLSLSPGK light: MDIQMTQSPSSLSASVGDRVTITCRASQDVNTAVAWYQQKPGAPKLLIYSASFLYSGVPSRFSGSRSGTDFTLTISSLQPEDFATYYCQQHYTTPPTFGQGTKVEIKRTVAAPSVFIFPPSDEQLKSGTASVVCLLNNFYPREAKVQWKVDNALQSGNSQESVTEQDSKDSTYSLSSTLTLSKADYEKHKVYACEVTHQGLSSPVTKSFNRGEC","cell killing EC50, HCC1954 (TF+++)",[1],0.073 nM
same,"cell killing EC50, HCC1954, with 0.5 uM unconjugated mAb 39",[1],> 100 nM
same,"cell killing EC50, NCI-H292 (TF++++)",[1],0.048 nM
same,"cell killing EC50, NCI-H292, with 0.5 uM unconjugated mAb 39",[1],> 100 nM
same,"cell killing EC50, NCI-H1975 (TF++)",[1],~7 nM
same,"cell killing EC50, NCI-H1975, with 0.5 uM unconjugated mAb 39",[1],> 100 nM
same,"cell killing Span, HCC1954 (TF+++)",[1],93%
same,"cell killing Span, NCI-H292 (TF++++)",[1],82%
same,"cell killing Span, NCI-H1975 (TF++)",[1],68%
"SRP2900-G06 (antibody, IgG1, V domains shown) VH: EVQLVESGGGLVQPGGSLRLSCAASGFTISDYIIHWVRQAPGKGLEWVGYIDPSNGYTYYADSVKGRFTISADTSKNTAYLQMNSLRAEDTAVYYCARDDQSLSSPFDYWGQGTLVTVSS VL: not shown","FX conversion (% inhibition), 1000 nM antibody",[2],21.4%
"SRP2900-H05 (antibody, IgG1, V domains shown) VH: EVQLVESGGGLVQPGGSLRLSCAASGFTISDYTIHWVRQAPGKGLEWVGYIDPSNGYTYYADSVKGRFTISADTSKNTAYLQMNSLRAEDTAVYYCARDIQSVSGEFDYWGQGTLVTVSS VL: not shown","FX conversion (% inhibition), 1000 nM antibody",[2],36.2%
"SRP2900-G09 (antibody, IgG1, V domains shown) VH: EVQLVESGGGLVQPGGSLRLSCAASGFTISDYIIHWVRQAPGKGLEWVGYIDPSNGYTYYADSVKGRFTISADTSKNTAYLQMNSLRAEDTAVYYCARDPQSLTSPFDYWGQGTLVTVSS VL: not shown","FX conversion (% inhibition), 1000 nM antibody",[2],30.4%
"SRP2900-H04 (antibody, IgG1, V domains shown) VH: EVQLVESGGGLVQPGGSLRLSCAASGFTISHYIIHWVRQAPGKGLEWVGYIDPSNGYTYYADSVKGRFTISADTSKNTAYLQMNSLRAEDTAVYYCARDIQSVSGEFDYWGQGTLVTVSS VL: not shown","FX conversion (% inhibition), 1000 nM antibody",[2],36.3%
"SRP2900-H02 (antibody, IgG1, V domains shown) VH: EVQLVESGGGLVQPGGSLRLSCAASGFTIFDYIIHWVRQAPGKGLEWVGYIDPSNGYTYYADSVKGRFTISADTSKNTAYLQMNSLRAEDTAVYYCARDIQSVSGEFDYWGQGTLVTVSS VL: not shown","FX conversion (% inhibition), 1000 nM antibody",[2],40.4%
"SRP2900-H10 (antibody, IgG1, V domains shown) VH: EVQLVESGGGLVQPGGSLRLSCAASGFTISDYVIHWVRQAPGKGLEWVGYIDPSNGFTYYADSVKGRFTISADTSKNTAYLQTNSLRAEDTAVYYCARDIQSVSGEFDYWGQGTLVTVSS VL: not shown","FX conversion (% inhibition), 1000 nM antibody",[2],45.4%
"SRP2900-H03 (antibody, IgG1, V domains shown) VH: EVQLVESGGGLVQPGGSLRLSCAASGFTIYDYIIHWVRQAPGKGLEWVGYIDPSNGYTYHADSVKGRFTISADTSKNTAYLQMNSLRAEDTAVYYCARDPQSLSSPFDYWGQGTLVTVSS VL: not shown","FX conversion (% inhibition), 1000 nM antibody",[2],40.8%
"SRP2900-G07 (antibody, IgG1, V domains shown) VH: EVQLVESGGGLVQPGGSLRLSCAASGFTISDYVIHWVRQAPGKGLEWVGYIDPSNGYTYYADSVKGRFTISADTSKNTAYLQMNSLRAEDTAVYYCARDPQSLTSPFDYWGQGTLVTVSS VL: not shown","FX conversion (% inhibition), 1000 nM antibody",[2],38.3%
"SRP2900-G11 (antibody, IgG1, V domains shown) VH: EVQLVESGGGLVQPGGSSRLSCAASGFTIYDYIIHWVRQAPGKGLEWVGYIDPSNGYTDYADSVKGRFTISADTSKNTAYLQMNSLRAEDTAVYYCARDIQSVSGEFDYWGQGTLVTVSS VL: not shown","FX conversion (% inhibition), 1000 nM antibody",[2],40.9%
"SRP2900-G08 (antibody, IgG1, V domains shown) VH: EVQLVESGGGLVQLGGSLRLSCAASGFTIGGYIIHWVRQAPGKGLEWVGYIDPSNGYTYYADSVKGRFTISADTSKNTAYLQMNSLRAEDTAVYYCARDIQSVSGEFDYWGQGTLVTVSS VL: not shown","FX conversion (% inhibition), 1000 nM antibody",[2],38.9%
"SRP2900-H01 (antibody, IgG1, V domains shown) VH: EVQLVESGGGLVQPGGSLRLSCAASGFTIFDYIIHWVRQAPGKGLEWVGYIDPSNGYTYYADSVKGRFTISADTSKNTAYLQMNSLRAEDTAVYYCARDPQSVGSEFDYWGQGTLVTVSS VL: not shown","FX conversion (% inhibition), 1000 nM antibody",[2],30.5%
"SRP2900-H08 (antibody, IgG1, V domains shown) VH: EVQLVESGGGLVQPGGSLRLSCAASGFTISDYVIHWVRQAPGKGLEWVGYIDPSNGYTFYADSVKGRFTISADTPKNTAYLQMNSLRAKDTAVYYCARDPQSLSSPFDYWGQGTLVTVSS VL: not shown","FX conversion (% inhibition), 1000 nM antibody",[2],32.2%
"SRP2900-G10 (antibody, IgG1, V domains shown) VH: EVQLVESGGGLVQPGGSLRLSCAASGFTIPDYIIHWVRQAPGKGLEWVGYIDPSNGYTYYADSVKGRFTISADTSKNTAYLQMNSLRAEDTAVYYCARDIQSVSGEFDYWGQGTLVTVSS VL: not shown","FX conversion (% inhibition), 1000 nM antibody",[2],48.7%
"SRP2900-A04 (antibody, IgG1, V domains shown) VH: EVQLVESGGGLVQPGGSLRLSCAASGFTISGYWIHWVRQAPGKGLEWVGYIDPYNGATYYADSVKGRFTISADTSKNAAYLQMNSLRAEDTAVYYCARADYFYIDEYWDYWGQGTLVTVSS VL: not shown","FX conversion (% inhibition), 1000 nM antibody",[2],38.6%
"SRP2900-A07 (antibody, IgG1, V domains shown) VH: EVQLVESGGGLVQPGGSLRLSCAASGFTISSYWIHWVRQAPGKGLEWVGYIDPYNGATYYADSVKGRFTISADTSKNTAYLQMNSLRAEDTAVYYCARSDYYYVDEFFDYWGQGTLVTVSS VL: not shown","FX conversion (% inhibition), 1000 nM antibody",[2],28.4%
"SRP2900-A06 (antibody, IgG1, V domains shown) VH: EVQLVESGGGLVQPGGSLRLSCAASGFTISSYWIHWVRQAPGKGLEWVGYIDPFNGATYYADSVKGRFTISADTSKNTAYLQMNSLRAEDTAVYYCARADYYYVDEYWDYWGQGTLVTVSS VL: not shown","FX conversion (% inhibition), 1000 nM antibody",[2],36.8%
